The chains are these.
B1: thyroid hormone receptor TRβ (receptor, human, UniProt P10828 1-461, looked up)
chain: MTPNSMTENGLTAWDKPKHCPDREHDWKLVGMSEACLHRKSHSERRSTLKNEQSSPHLIQTTWTSSIFHLDHDDVNDQSVSSAQTFQTEEKKCKGYIPSYLDKDELCVVCGDKATGYHYRCITCEGCKGFFRRTIQKNLHPSYSCKYEGKCVIDKVTRNQCQECRFKKCIYVGMATDLVLDDSKRLAKRKLIEENREKRRREELQKSIGHKPEPTDEEWELIKTVTEAHVATNAQGSHWKQKRKFLPEDIGQAPIVNAPEGGKVDLEAFSHFTKIITPAITRVVDFAKKLPMFCELPCEDQIILLKGCCMEIMSLRAAVRYDPESETLTLNGEMAVTRGQLKNGGLGVVSDAIFDLGMSLSSFNLDDTEVALLQAVLLMSSDRPGLACVERIEKYQDSFLLAFEHYINYRKHHVTHFWPKLLMKVTDLRMIGACHASRFLHMKVECPTELFPPLFLEVFED
notes: mature; In vitro translated; also called TR-B; c-erb-A-B

Experiment [1] relates to RXRα-TRα and RXRα-RARα complexes. The experiment in a line: Gel retardation assay of RXRα interaction with TRα or RARα on palindromic TRE. In kind it is binding.
Experiment [2] addresses T1, retinoid x receptor (RXRα) (human, UniProt P19793 1-462).
T1 construct: mature; In vitro translated full length receptor; 35S-labelled in the column and immunoprecipitation experiments
T1 sequence (looked up): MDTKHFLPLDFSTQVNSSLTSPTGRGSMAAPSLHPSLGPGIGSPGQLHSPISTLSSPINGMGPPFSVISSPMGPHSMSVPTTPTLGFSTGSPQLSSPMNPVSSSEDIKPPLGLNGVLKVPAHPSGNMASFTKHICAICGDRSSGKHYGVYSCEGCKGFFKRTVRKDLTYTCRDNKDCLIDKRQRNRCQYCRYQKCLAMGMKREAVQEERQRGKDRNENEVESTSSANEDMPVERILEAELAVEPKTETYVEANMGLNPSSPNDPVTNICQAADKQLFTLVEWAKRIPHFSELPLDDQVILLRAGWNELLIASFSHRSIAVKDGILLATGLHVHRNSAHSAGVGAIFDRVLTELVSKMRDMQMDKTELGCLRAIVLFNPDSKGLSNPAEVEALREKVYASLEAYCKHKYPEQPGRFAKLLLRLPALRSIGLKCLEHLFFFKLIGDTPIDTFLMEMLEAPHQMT
As to the kind of experiment: gel retardation, 32P palindromic TRE, in vitro translated receptors. The protocol: (§1) After incubation at room temperature for 45 minutes, the effect of antibody on slow migrating complexes was analyzed by gel retardation using ^32-labelled palindromic TRE as a probe. As a control, receptor mixtures were also incubated with preimmune serum (NI).
(§2) In vitro translated receptor protein (1 to 5 µl depending on the translation efficiency) was incubated with the ^32P-labeled oligonucleotides in a 20-µl reaction mixture containing 10 mM hepes buffer, pH 7.9, 50 mM KCl, 1 mM DTT, 2.5 mM MgCl, 10% glycerol, and 1 µg of poly(dI-dC) at 25° C. for 20 minutes. In general, relative low receptor concentration was used to obtain the clear effect of heterodimer formation. The reaction mixture was then loaded on a 5% nondenaturing polyacrylamide gel containing 0.5× TBE (1×TBE=0.089 M TRIS-borate, 0.089 M boric acid, and 0.002 M EDTA). […] When antibody was used, 1 µl of the antiserum was incubated with the specific translation products at room temperature for 45 minutes before performing the experiments described above.

The target in experiment [3] is T2, FLAG-RXRα (human, UniProt P19793 1-462).
T2 construct: mature; in vitro translated; also called F-RXRα
T2 sequence: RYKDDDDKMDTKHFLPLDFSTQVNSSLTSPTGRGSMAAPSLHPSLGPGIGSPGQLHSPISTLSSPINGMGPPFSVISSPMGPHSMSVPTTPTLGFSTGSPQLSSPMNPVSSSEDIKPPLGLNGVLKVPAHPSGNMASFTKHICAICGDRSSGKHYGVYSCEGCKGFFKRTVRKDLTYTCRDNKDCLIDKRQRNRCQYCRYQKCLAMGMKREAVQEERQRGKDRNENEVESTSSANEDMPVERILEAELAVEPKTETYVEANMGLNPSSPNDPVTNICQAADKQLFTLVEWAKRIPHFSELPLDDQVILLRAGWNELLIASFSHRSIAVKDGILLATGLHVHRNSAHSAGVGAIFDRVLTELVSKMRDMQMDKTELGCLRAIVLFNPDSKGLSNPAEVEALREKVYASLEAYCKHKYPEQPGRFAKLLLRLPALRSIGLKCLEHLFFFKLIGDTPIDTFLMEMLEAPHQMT
The experiment is described as above. The protocol: as §1, §2

Experiment [4] has as its target B1. The experiment in a line: gel retardation, 32P palindromic TRE (data not shown).
The target of experiment [5] is T3, retinoic acid receptor RARα (UniProt P10276 1-462, limits assumed).
T3 construct: mature; In vitro translated
T3 sequence (looked up): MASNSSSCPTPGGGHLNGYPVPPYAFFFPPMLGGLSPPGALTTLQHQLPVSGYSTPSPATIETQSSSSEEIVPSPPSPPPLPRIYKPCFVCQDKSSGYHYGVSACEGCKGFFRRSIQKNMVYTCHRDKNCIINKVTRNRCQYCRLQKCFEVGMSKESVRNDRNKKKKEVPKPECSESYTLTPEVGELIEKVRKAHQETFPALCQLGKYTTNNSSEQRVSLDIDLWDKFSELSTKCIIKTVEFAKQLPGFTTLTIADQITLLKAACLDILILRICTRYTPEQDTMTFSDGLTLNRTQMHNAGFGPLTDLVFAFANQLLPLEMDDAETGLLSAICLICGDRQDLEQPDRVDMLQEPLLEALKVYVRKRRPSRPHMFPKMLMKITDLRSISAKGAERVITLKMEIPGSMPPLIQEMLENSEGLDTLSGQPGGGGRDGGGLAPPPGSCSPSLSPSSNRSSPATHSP
The description is as above.

In experiment [6] the target is T4, retinoic acid receptor RARβ (UniProt P10826 1-455, limits assumed).
T4 construct: mature; In vitro translated
T4 sequence (looked up): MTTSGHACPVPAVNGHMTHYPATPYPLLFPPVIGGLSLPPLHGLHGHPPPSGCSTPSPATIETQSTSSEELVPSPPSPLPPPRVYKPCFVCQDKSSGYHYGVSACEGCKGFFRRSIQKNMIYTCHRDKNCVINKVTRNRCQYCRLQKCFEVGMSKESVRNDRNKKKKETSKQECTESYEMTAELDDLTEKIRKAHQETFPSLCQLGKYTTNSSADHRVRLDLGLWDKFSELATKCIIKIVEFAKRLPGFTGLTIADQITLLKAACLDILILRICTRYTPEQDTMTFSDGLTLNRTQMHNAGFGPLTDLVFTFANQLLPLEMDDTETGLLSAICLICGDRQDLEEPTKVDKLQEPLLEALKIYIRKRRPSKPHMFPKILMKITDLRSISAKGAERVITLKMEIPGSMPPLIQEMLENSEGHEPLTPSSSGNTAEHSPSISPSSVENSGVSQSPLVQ
The experiment is described as above.

The target of experiment [7] is T5, retinoic acid receptor RARγ (UniProt P13631 1-454, limits assumed).
T5 construct: mature; In vitro translated
T5 sequence (looked up): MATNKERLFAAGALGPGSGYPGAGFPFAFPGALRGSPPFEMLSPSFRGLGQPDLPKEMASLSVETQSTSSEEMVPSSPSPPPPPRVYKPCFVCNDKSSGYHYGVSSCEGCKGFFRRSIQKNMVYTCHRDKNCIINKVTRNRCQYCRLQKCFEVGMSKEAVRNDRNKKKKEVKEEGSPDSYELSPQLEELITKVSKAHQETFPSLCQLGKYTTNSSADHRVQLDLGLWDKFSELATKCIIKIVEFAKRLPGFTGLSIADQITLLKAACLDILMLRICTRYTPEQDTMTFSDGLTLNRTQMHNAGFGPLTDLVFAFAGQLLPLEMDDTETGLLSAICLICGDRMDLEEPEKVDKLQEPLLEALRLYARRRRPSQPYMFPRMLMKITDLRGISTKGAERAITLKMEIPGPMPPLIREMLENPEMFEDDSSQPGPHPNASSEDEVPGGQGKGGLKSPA
As to the kind of experiment: gel retardation, 32P palindromic TRE, in vitro translated receptors. How it is done:
as §1, §2

The target of experiment [8] is T6, estrogen receptor (ER) (UniProt P03372 1-595, limits assumed).
T6 construct: In vitro translated; 35S-labelled in the column experiment
T6 sequence (looked up): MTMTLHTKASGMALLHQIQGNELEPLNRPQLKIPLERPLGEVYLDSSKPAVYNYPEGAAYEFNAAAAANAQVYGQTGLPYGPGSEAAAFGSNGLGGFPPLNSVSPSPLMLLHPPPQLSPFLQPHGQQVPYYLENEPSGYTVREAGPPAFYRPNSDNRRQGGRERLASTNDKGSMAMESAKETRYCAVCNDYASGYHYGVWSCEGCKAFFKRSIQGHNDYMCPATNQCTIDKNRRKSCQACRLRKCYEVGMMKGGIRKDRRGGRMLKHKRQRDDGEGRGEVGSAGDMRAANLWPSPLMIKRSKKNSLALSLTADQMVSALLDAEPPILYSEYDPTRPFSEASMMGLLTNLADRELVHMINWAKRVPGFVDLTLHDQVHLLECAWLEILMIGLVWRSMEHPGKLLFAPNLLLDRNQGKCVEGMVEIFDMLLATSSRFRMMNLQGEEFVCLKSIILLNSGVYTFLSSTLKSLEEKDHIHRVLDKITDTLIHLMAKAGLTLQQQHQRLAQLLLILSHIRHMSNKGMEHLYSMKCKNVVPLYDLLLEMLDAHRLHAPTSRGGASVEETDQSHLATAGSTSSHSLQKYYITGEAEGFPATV
As to the kind of experiment: glutathione sepharose affinity column, 35S-labelled ER, no DNA.

In the case of `N[C@@H](Cc1cc(I)c(Oc2ccc(O)c(I)c2)c(I)c1)C(=O)O` [T3], the “effect on migration rate of the TRα complex” value in experiment [1] (T3 10^−7 M) is listed as “slightly increases the migration rate”. The “influence of hormone on formation of slow migrating complexes” value in experiment [1] (hormone 10^−7 M, TRα and RARα with RXRα) is recorded as “no clear influence”.
For the molecule B1, the binding result in experiment [2] and in experiment [3] was “binds” each time.

B2: RXRαm2 (receptor, human, UniProt P19793 1-387, looked up)
chain: MDTKHFLPLDFSTQVNSSLTSPTGRGSMAAPSLHPSLGPGIGSPGQLHSPISTLSSPINGMGPPFSVISSPMGPHSMSVPTTPTLGFSTGSPQLSSPMNPVSSSEDIKPPLGLNGVLKVPAHPSGNMASFTKHICAICGDRSSGKHYGVYSCEGCKGFFKRTVRKDLTYTCRDNKDCLIDKRQRNRCQYCRYQKCLAMGMKREAVQEERQRGKDRNENEVESTSSANEDMPVERILEAELAVEPKTETYVEANMGLNPSSPNDPVTNICQAADKQLFTLVEWAKRIPHFSELPLDDQVILLRAGWNELLIASFSHRSIAVKDGILLATGLHVHRNSAHSAGVGAIFDRVLTELVSKMRDMQMDKTELGCLRAIVLFNPDSKGLSNPA
notes: range: lacks the carboxyterminal 75 amino acids; In vitro translated deletion mutant
Regarding B2, the binding result in experiment [4], in experiment [5], in experiment [6] and in experiment [7] was “no binding” each time.

B3: glutathione S-transferase-RARγ fusion protein (bacterially expressed FLAG-RARγ fusion protein) (other)
chain: RYKDDDDKMATNKERLFAAGALGPGSGYPGAGFPFAFPGALRGSPPFEMLSPSFRGLGQPDLPKEMASLSVETQSTSSEEMVPSSPSPPPPPRVYKPCFVCNDKSSGYHYGVSSCEGCKGFFRRSIQKNMVYTCHRDKNCIINKVTRNRCQYCRLQKCFEVGMSKEAVRNDRNKKKKEVKEEGSPDSYELSPQLEELITKVSKAHQETFPSLCQLGKYTTNSSADHRVQLDLGLWDKFSELATKCIIKIVEFAKRLPGFTGLSIADQITLLKAACLDILMLRICTRYTPEQDTMTFSDGLTLNRTQMHNAGFGPLTDLVFAFAGQLLPLEMDDTETGLLSAICLICGDRMDLEEPEKVDKLQEPLLEALRLYARRRRPSQPYMFPRMLMKITDLRGISTKGAERAITLKMEIPGPMPPLIREMLENPEMFEDDSSQPGPHPNASSEDEVPGGQGKGGLKSPA
notes: mature; FLAG-RARγ cDNA cloned in frame into pGex-2T, expressed in bacteria, purified on glutathione sepharose 4B; also called RARγ-glutathione transferase fusion protein; glutathione transferase-RARγ; not shown: glutathione S-transferase encoded by the expression vector pGEX-2T (Pharmacia); vector linker not described
B3: the binding result in experiment [8] is recorded as “no binding”.

B4: RXRαm7 (receptor, human, UniProt P19793 1-462, looked up)
chain: MDTKHFLPLDFSTQVNSSLTSPTGRGSMAAPSLHPSLGPGIGSPGQLHSPISTLSSPINGMGPPFSVISSPMGPHSMSVPTTPTLGFSTGSPQLSSPMNPVSSSEDIKPPLGLNGVLKVPAHPSGNMASFTKHICAICGDRSSGKHYGVYSCEGCKGFFKRTVRKDLTYTCRDNKDCLIDKRQRNRCQYCRYQKCLATGLHVHRNSAHSAGVGAIFDRVLTELVSKMRDMQMDKTELGCLRAIVLFNPDSKGLSNPAEVEALREKVYASLEAYCKHKYPEQPGRFAKLLLRLPALRSIGLKCLEHLFFFKLIGDTPIDTFLMEMLEAPHQMT
notes: In vitro translated deletion mutant
B4: the binding result in experiment [4], in experiment [5], in experiment [6] and in experiment [7] was “no binding” in each case.

(Values after patent US7098310B1, “Heterodimers of retinoid X receptors (RXRS) and other steroid hormone receptors” (Ligand Pharmaceuticals, priority 1991, dated 2006).)
